The text below walks through data of article PMC5626764 (Nature Communications, 2017).

The term stoichiometry N denotes the number of molecules, sites or subunits per partner or assembly. A word on the Kd: it is a measure of binding affinity in units of concentration. A low value points to a tighter complex.

B1: Wildtype NiV G ectodomain (Nipah virus attachment glycoprotein G, residues 71-602, N-terminal His6-tag) (domain or fragment)
chain: QNYTRSTDNQAVIKDALQGIQQQIKGLADKIGTEIGPKVSLIDTSSTITIPANIGLLGSKISQSTASINENVNEKCKFTLPPLKIHECNISCPNPLPFREYRPQTEGVSNLVGLPNNICLQKTSNQILKPKLISYTLPVVGQSGTCITDPLLAMDEGYFAYSHLERIGSCSRGVSKQRIIGVGEVLDRGDEVPSLFMTNVWTPPNPNTVYHCSAVYNNEFYYVLCAVSTVGDPILNSTYWSGSLMMTRLAVKPKSNGGGYNQHQLALRSIEKGRYDKVMPYGPSGIKQGDTLYFPAVGFLVRTEFKYNDSNCPITKCQYSKPENCRLSMGIRPNSHYILRSGLLKYNLSDGENPKVVFIEISDQRLSIGSPSKIYDSLGQPVFYQASFSWDTMIKFGDVLTVNPLVVNWRNNTVISRPGQSQCPRFNTCPEICWEGVYNDAFLIDRINWISAGVFLDSNQTAENPVFTVFKDNEILYRAQLASEDTNAQKTITNCFLLKNKIWCISLVEIYDTGDNVIRPKLFAVKIPEQCT

Data set [1] concerns the molecule itself. Description: negative stain electron microscopy.
Data set [2] deals with B1. Description: ELISA. The following applies: both partners purified. On the technique in general: In an ELISA, binding on a coated surface is turned into a signal by an enzyme label.
Data set [3] addresses T1, SHG-labeled wildtype NiV G ectodomain (Nipah virus, UniProt Q9IH62 71-602).
T1 sequence: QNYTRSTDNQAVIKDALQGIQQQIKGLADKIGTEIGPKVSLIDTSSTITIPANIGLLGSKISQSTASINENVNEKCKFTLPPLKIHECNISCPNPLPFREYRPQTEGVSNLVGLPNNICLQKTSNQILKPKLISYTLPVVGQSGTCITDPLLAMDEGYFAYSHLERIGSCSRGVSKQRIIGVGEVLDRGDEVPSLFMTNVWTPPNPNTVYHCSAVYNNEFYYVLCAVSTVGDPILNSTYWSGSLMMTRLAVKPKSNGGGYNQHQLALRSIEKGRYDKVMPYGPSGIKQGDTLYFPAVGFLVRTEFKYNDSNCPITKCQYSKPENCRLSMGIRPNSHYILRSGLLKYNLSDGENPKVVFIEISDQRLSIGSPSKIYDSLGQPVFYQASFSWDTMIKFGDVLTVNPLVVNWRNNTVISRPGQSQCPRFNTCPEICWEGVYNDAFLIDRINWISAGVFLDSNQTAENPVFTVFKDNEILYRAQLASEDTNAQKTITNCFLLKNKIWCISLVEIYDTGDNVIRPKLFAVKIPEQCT
Description: second harmonic generation (SHG). The following applies: both partners purified.

On to B1, for which the “stoichiometry N” value in data set [1] turned out to be 4.

B2: ephrinB2-229 (S-tagged monomeric ephrinB2 ectodomain, residues 25-229) (domain or fragment, human, UniProt P52799 25-229, looked up)
chain: SKSIVLEPIYWNSSNSKFLPGQGLVLYPQIGDKLDIICPKVDSKTVGQYEYYKVYMVDKDQADRCTIKKENTPLLNCAKPDQDIKFTIKFQEFSPNLWGLEFQKNKDYYIISTSNGSLEGLDNQEGGVCQTRAMKILMKVGQDASSAGSTRNKDPTRRPELEAGTNGRSSTTSPFVKPNPGSSTDGNSAGHSGNNILGSEVALFA
On to B2, for which binding in data set [2] was put at a Kd of 33.2 nM.

B3: Stag-ephrinB2-167 (S-tagged monomeric ephrinB2 globular domain, residues 25-167) (domain or fragment, human, UniProt P52799 25-167, looked up)
chain: SKSIVLEPIYWNSSNSKFLPGQGLVLYPQIGDKLDIICPKVDSKTVGQYEYYKVYMVDKDQADRCTIKKENTPLLNCAKPDQDIKFTIKFQEFSPNLWGLEFQKNKDYYIISTSNGSLEGLDNQEGGVCQTRAMKILMKVGQD
In the case of B3, the affinity in data set [2], expressed as Kd, was 11.9 nM.

B4: ephrinB2-167 from His6-ephrinB2-167 with the His6-tag removed by enterokinase cleavage (domain or fragment, human, UniProt P52799 25-167, looked up)
chain: SKSIVLEPIYWNSSNSKFLPGQGLVLYPQIGDKLDIICPKVDSKTVGQYEYYKVYMVDKDQADRCTIKKENTPLLNCAKPDQDIKFTIKFQEFSPNLWGLEFQKNKDYYIISTSNGSLEGLDNQEGGVCQTRAMKILMKVGQD
notes: also called monomeric ephrinB2
With B4, the ΔSHG in data set [3] was -27.9%.

B5: ephrinB2-Fc (human ephrinB2 residues 1-229, Factor XA cleavage site, human IgG1 residues 100-330) (Fc fusion)
chain: IVLEPIYWNSSNSKFLPGQGLVLYPQIGDKLDIICPKVDSKTVGQYEYYKVYMVDKDQADRCTIKKENTPLLNCAKPDQDIKFTIKFQEFSPNLWGLEFQKNKDYYIISTSNGSLEGLDNQEGGVCQTRAMKILMKVGQDASSAGSTRNKDPTRRPELEAGTNGRSSTTSPFVKPNPGSSTDGNSAGHSGNNILGSEVALFA
notes: also called dimeric ephrinB2; dimeric receptor
For B5, the affinity in data set [2], expressed as Kd, was 0.088 nM. Moreover, the ΔSHG in data set [3] was -12.9%.
